These results are taken from paper PMC11908827, “PpERF17 alleviates peach fruit postharvest chilling injury under elevated CO2 by activating jasmonic acid and γ-aminobutyric acid biosynthesis”.

The target of data set [1] is T1, PpERF17 (Prunus persica (peach), cv. …, UniProt M5W9J0 1-215).
T1 sequence: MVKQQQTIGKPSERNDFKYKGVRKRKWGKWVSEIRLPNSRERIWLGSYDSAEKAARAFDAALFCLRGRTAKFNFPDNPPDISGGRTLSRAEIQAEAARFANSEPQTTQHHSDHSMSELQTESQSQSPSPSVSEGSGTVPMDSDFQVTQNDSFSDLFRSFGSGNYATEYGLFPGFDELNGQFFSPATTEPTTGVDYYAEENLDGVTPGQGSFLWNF
The experiment in a line: EMSA; cold probe 50x/500x competes; Chemiluminescent EMSA Kit (Beyotime); buffer, salt, pH and temperature not stated. Conditions: protein: recombinant; tags: GST (N-terminal, pGEX-4T-1); label: biotin; blunt.

Data set [2] addresses T1, PpERF17. The experiment in a line: EMSA; Chemiluminescent EMSA Kit (Beyotime); buffer, salt, pH and temperature not stated. Conditions: protein: recombinant, tags: GST (N-terminal, pGEX-4T-1), label: biotin.

B1: PpERF17-PpAOS probe (dsDNA)
DNA 1: ATGGTTCATGTACCCCACCGTCTTCACACTCACCTTC
DNA 2: GAAGGTGAGTGTGAAGACGGTGGGGTACATGAACCAT
As for B1, the binding result in the data set with PpERF17 [1] was “binds”.

B2: PpERF17-PpOPR3 mutant probe (dsDNA)
DNA 1: TAGAAACCAAAACGATTTTTTTTTTAAATAAATCCGC
DNA 2: GCGGATTTATTTAAAAAAAAAATCGTTTTGGTTTCTA
For B2, the binding result with PpERF17 [2] (blunt) was “no binding”.

B3: PpERF17-Pp13S-LOX mutant probe (dsDNA)
DNA 1: TCTTAAAAACGTGAAAAAAAAAAGATCAACAGTACCC
DNA 2: GGGTACTGTTGATCTTTTTTTTTTCACGTTTTTAAGA
With B3, the binding result in the data set with PpERF17 [2] (blunt) is “no binding”.

B4: PpERF17-Pp13S-LOX probe (dsDNA)
DNA 1: TCTTAAAAACGTGTGGACGGTGAGATCAACAGTACCC
DNA 2: GGGTACTGTTGATCTCACCGTCCACACGTTTTTAAGA
For the molecule B4, the binding result in the data set with PpERF17 [1] is “binds”.

B5: PpERF17-PpAOS mutant probe (dsDNA)
DNA 1: ATGGTTCATGTACCCTTTTTTTTTCACACTCACCTTC
DNA 2: GAAGGTGAGTGTGAAAAAAAAAGGGTACATGAACCAT
Consider B5, for which the binding result with PpERF17 [2] (blunt) was “no binding”.

B6: PpERF17-PpGAD probe (dsDNA)
DNA 1: CATAAGGTCGGAAGGCACCGTCCATGTTCCAACTTGG
DNA 2: CCAAGTTGGAACATGGACGGTGCCTTCCGACCTTATG
Turning to B6, in the data set with PpERF17 [1], the binding result is “binds”.

B7: PpERF17-PpGAD mutant probe (dsDNA)
DNA 1: CATAAAAAAAAAAGGTTTTTTTTTGTTCCAACTTGG
DNA 2: CCAAGTTGGAACAAAAAAAAAACCTTTTTTTTTATG
In the case of B7, the binding result with PpERF17 [2] was “no binding”.

B8: PpERF17-PpOPR3 probe (dsDNA)
DNA 1: TAGAAACCAAAACGACACCGGCCATAAATAAATCCGC
DNA 2: GCGGATTTATTTATGGCCGGTGTCGTTTTGGTTTCTA
Turning to B8, the binding result with PpERF17 [1] is given as “binds”.
